The labels stand for the following.
B1: TPR t1 (parent)
chain: GACCAAUCUGCCCUCAGAGCUCGAGAACAUCUUCGGAUGCAGAGGAGGCAGGCUUCGGUGGCGCGAUAGCGCCAACGUCCUCAACCUCCAAUGCAUCCCACCACAUGAUGAUGCCUGAAGAGCCUUGGUUUUUUG

In the data set the parent is B1. Kind of data set: polymerase ribozyme fitness, log enrichment relative to wild type (log ratio); higher = more active; in vitro selection for triplet polymerase activity. Summed up:
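PCR was used to build mutant libraries for each subunit of a heterodimeric triplet polymerase ribozyme, which were then transcribed. A single in vitro selection round, in triplicate, used a frozen incubation at −7 °C and recovered extended constructs by gel excision, streptavidin beads and RT-PCR. Fitness is the logarithm of genotype enrichment relative to wild-type enrichment, averaged over replicates with inverse-variance weights. The logarithm is base 2, and after Illumina sequencing only genotypes with ≥10 input reads and ≥1 read per output were kept.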
Turning to C115U C123G, the “polymerase ribozyme fitness (log ratio)” value is -0.112.
As for U112C C124A, the figure is 0.693; as for G117U A119U, -3.92.
As for C114G G122U, the figure is -2.87; as for G128U U129C, -0.805.
As for G113C U125C, the figure is -2.26; as for G113C U125G, -2.58.
Take C115U A119U U130G: the “polymerase ribozyme fitness (log ratio)” value is -1.35.
The figure for G117U U131G is -4.64; for A121C C123U it is 0.54.
The figure for A121C G127A G128U is -0.559; for G122A C123A it is -0.665.
As for G120U C123A, the “polymerase ribozyme fitness (log ratio)” value is -0.201.
As for U116G C124A, the figure is 0.803.
The figure for U112A U129A is 0.929; for C114U U133A it is -1.63.
Consider U112A C115A U125G, for which the “polymerase ribozyme fitness (log ratio)” value is 0.414.
The figure for C115A U129A U131C is -0.649; for G120U C124U it is 1.38; for U112C G122A it is 0.065.
Consider A121U U133A, for which the “polymerase ribozyme fitness (log ratio)” value stood at 1.83.
As for C114A U131A, the “polymerase ribozyme fitness (log ratio)” value is -0.246.
The figure for U112G U116C is -0.775; for C115A G128U U133A it is -3.05.
As for G113A C123U, the figure is -1.32; as for G113A C123A, -1.45; as for C124G G128C, -0.216.
On to A111G C124A U126A, for which the “polymerase ribozyme fitness (log ratio)” value was 0.226.
As for C114U G120A C123U, the figure is -1.64; as for C124A U134G, 3.41.
As for C124A U131A, the figure is 1.79; as for C123G U126G, -0.0102; as for U116G C123A, -3.25.
The figure for A121G U125A is 2.32; for A121U C124U it is 2.15.
Regarding G120C G127A, the “polymerase ribozyme fitness (log ratio)” value is 0.0309.
The figure for G120C G127C is -0.522; for G117U G127U it is -4.77; for G117U G135U it is -1.25.
With U112G C124U, the “polymerase ribozyme fitness (log ratio)” value was 0.835.
For the variant G117C G120U, the “polymerase ribozyme fitness (log ratio)” value was -4.51.
As for G117C G128A, the figure is -5.33.
As for U112A A121U U125A, the figure is 1.36; as for G113U A119C G122U, -4.35.
As for C124A G127C, the figure is 0.796; as for U116G U125A U133A, -4.19.
On to U112C, for which the “polymerase ribozyme fitness (log ratio)” value stood at 1.39.
As for U112G, the figure is 0.661; as for U112A, 1.34; as for G113C G120C, -2.85.
As for U112A A118U, the figure is 0.895; as for G120U G127C, -0.262; as for G120U G127U, 1.64.
With C124U U125A, the “polymerase ribozyme fitness (log ratio)” value came to 0.926.
The figure for A121C U133A is -0.797; for G113C it is -2.02; for G113U it is -2.64.
As for G113A, the figure is -1.01.
The figure for C114U U125A is -3.07.
Turning to A111G G113U U129G U131A, the “polymerase ribozyme fitness (log ratio)” value is -6.64.
As for C114A A121U, the figure is -1.18; as for U112A G127A, 0.262; as for C115A U129C, -2.62.
The figure for C114A C124A is -1.12.
Turning to G120C U129A, the “polymerase ribozyme fitness (log ratio)” value is -1.15.
As for G117C U131C, the “polymerase ribozyme fitness (log ratio)” value is -3.27.
Regarding G113C C114U C115G C124U, the “polymerase ribozyme fitness (log ratio)” value is -3.2.
Consider U112A G122A, for which the “polymerase ribozyme fitness (log ratio)” value was -0.631.
As for U112A G122C, the figure is 0.265; as for C114A U129G U130C, -2.79.
Take G113C A119G: the “polymerase ribozyme fitness (log ratio)” value is -0.737.
Consider G113C A119C, for which the “polymerase ribozyme fitness (log ratio)” value was -4.37.
As for U130C, the figure is 0.0585.
The figure for U130A is -0.523.
The figure for U130G is -0.361; for C114G U133A it is -2.37; for U112A C123A it is 1.45.
Consider C124G U126A, for which the “polymerase ribozyme fitness (log ratio)” value stood at 1.15.
As for C123G U130G, the figure is 1.48; as for G117C A119U, -2.92.
As for U129C G135C, the figure is 0.513.
As for U129C G135U, the figure is -0.0345; as for G113A C115A, -3.51.
As for G117A U130G, the “polymerase ribozyme fitness (log ratio)” value is -1.63.
The figure for C123G G135U is 1.4; for U126A U130A it is -3.19; for G113U U134G it is -1.78.
Consider U125G U132C, for which the “polymerase ribozyme fitness (log ratio)” value was -0.45.
As for G127A G135U, the figure is -2.16.
Consider G120A U130G, for which the “polymerase ribozyme fitness (log ratio)” value is 0.245.
As for G120A U130C, the figure is 0.856; as for A118U G120A, -0.267; as for C114G C115U, -4.37.
The figure for C114U is -1.7; for C114A it is -1.39.
In the case of C114G, the “polymerase ribozyme fitness (log ratio)” value was -2.37.
G120A C123U: the “polymerase ribozyme fitness (log ratio)” value is 1.96.
The figure for G117U U130C is -2.04; for C115U G128U it is -4.06.
The figure for U116C G117U is -1.01.
As for C114U U116A, the figure is -5.58; as for G113A G127U, -3.27.
Turning to G113A G122C G135C, the “polymerase ribozyme fitness (log ratio)” value was -0.874.
The figure for U112A U131A is 1.02; for C115U A118U U130G it is -1.69; for U116C U131G it is -1.05.
On to G117U U129G, for which the “polymerase ribozyme fitness (log ratio)” value was -4.23.
Take G113A G120U: the “polymerase ribozyme fitness (log ratio)” value was -2.35.
As for G128A U131A, the figure is -2.44.
A121C U126A: the “polymerase ribozyme fitness (log ratio)” value came out at 0.358.
As for C115U U129G, the “polymerase ribozyme fitness (log ratio)” value was -2.15.
As for U112A G128C, the figure is -2.66; as for C115A U132A, 0.0612; as for G113A A118C, -2.55.
Consider G113A A118U, for which the “polymerase ribozyme fitness (log ratio)” value was -2.67.
The figure for U112G G120U G122C is -1.48; for G117C U126G it is -3.22; for G120C U133A it is 1.48.
The figure for A121U C123G is 1.92; for C123A G128C it is -0.87.
The figure for G117C A121G is -2.23; for C115G G120A it is -1.35; for C114A C123U it is -3.16.
For the variant G113U A118U, the “polymerase ribozyme fitness (log ratio)” value is -2.55.
The figure for C115U G120A A121C is -2.04; for U112C A119U it is 1.24.
In the case of G120U U132A, the “polymerase ribozyme fitness (log ratio)” value amounted to 0.126.
As for G120A G135C, the figure is 0.457; as for U116A C124A, 0.141.
The figure for G120C A121U is 2.44.
As for C123U U129A, the figure is 0.307; as for A121C G122A, 1.31; as for G117C G120U U131G, -4.67.
Regarding G120C C124U, the “polymerase ribozyme fitness (log ratio)” value was found to be 1.74.
As for G117U U133A, the figure is -3.13; as for A121C U129A, -1.04; as for G113C G122A C123U, -3.7.
Turning to A111G U126C, the “polymerase ribozyme fitness (log ratio)” value worked out at 0.0972.
As for G113U G122U, the “polymerase ribozyme fitness (log ratio)” value was -2.45.
The figure for G127C U129C is -2.22.
The figure for C114A U125A is -1.73; for A111U C124U it is -3.09.
The figure for G113C U130G is -2.88; for G122A U133G it is -0.871.
In the case of A119C A121U, the “polymerase ribozyme fitness (log ratio)” value is -1.38.
The figure for G127A U129G is -1.62.
As for C115U G120A, the “polymerase ribozyme fitness (log ratio)” value was -2.24.
The figure for U116C U133A is -0.508.
The figure for C114A U129C is -1.63; for A121G G128A it is 0.956; for U112G G122A G128A it is -2.62.

(Values after the RNAGym collection of RNA variant scans (doi:10.1073/pnas.2313332121).)
